# Data taken from article PMC3597676.
# B1: MicAstab (structured_RNA)
# RNA: GAAAGACGCGCAUUUGUUAUCAUCAUCCCUGGGAAAGCGACCGUUUCCCUGGCCACUCACGAGUGGCCUUUUAAAA
# B2: MicAstab + ompA leader (structured_RNA)
# RNA 1: B1 RNA
# RNA 2: GGGCCAGGGGUGCUCGGCAUAAGCCGAAGAUAUCGGUAGAGUUAAUAUUGAGCAGAUCCCCCGGUGAAGGAUUUAACCGUGUUAUCUCGUUGGAGAUAUUCAUGGCGUAUUUUGGAUGAUAACGAGGCGCAAAAAAUGAAAAAGACAGCUAUCGCGAUUGCAGUGGCA
# Legend:
# Hfq [1] = biological target: T1, Hfq (UniProt P0A6X3 1-102); assay: EMSA
# Hfq [2] = biological target: T1, Hfq; assay: EMSA; remark: listed apart in the source
# T1 sequence (P0A6X3 whole entry): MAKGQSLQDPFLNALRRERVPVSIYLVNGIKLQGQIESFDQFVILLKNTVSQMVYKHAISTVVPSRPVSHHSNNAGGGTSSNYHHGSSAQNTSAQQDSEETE
binder,measurement,setting,value
B1,Kd,Hfq [1],1.5 nM
B2,binding result,Hfq [2],binds
